Measurements taken from patent publication US7105166 (Bristol-Myers Squibb, dated 2006).

B1: B7 antigen (B7-1, CD80) expressed on cells (ligand, human, UniProt P33681 35-288, looked up)
chain: VIHVTKEVKEVATLSCGHNVSVEELAQTRIYWQKEKKMVLTMMSGDMNIWPEYKNRTIFDITNNLSIVILALRPSDEGTYECVVLKYEKDAFKREHLAEVTLSVKADFPTPSISDFEIPTSNIRRIICSTSGGFPEPHLSWLENGEELNAINTTVSQDPETELYAVSSKLDFNMTTNHSFMCLIKYGHLRVNQTFNWNTTKQEHFPDNLLPSWAITLISVNGIFVICCLTYCFAPRCRERRRNERLRRESVRPV
notes: whole, on cells; Stably transfected CHO cells; in the MLR and IgM assays the B7 antigen of the stimulating B cells; also called B7^+ CHO cells; B7-1 positive CHO cells

How the values were obtained:
[1] = target: T1, CD5Ig (human, UniProt P06127 25-371; P01857 99-330 = IgG part); experiment: indirect immunofluorescence, FACS, FITC goat anti-human Ig second step
T1 construct: range 1-347;domain: hinge, CH2 and CH3 regions; Control fusion protein; also called control CD5Ig fusion protein
Method: Prior to staining, COS or CHO cells were removed from their culture vessels by incubation in PBS containing 10 mM EDTA. Cells were first incubated with mAbs or Ig fusion proteins at 10 micro grams/ml in DMEM containing 10% FBS for 1–2 hr at 4 degrees C. Cells were then washed, and incubated for an additional 0.5–2 hrs at 4 degrees C. with FITC-conjugated goat anti-mouse immunoglobulin or with FITC-conjugated goat anti-human IgCγ serum (both from Tago, Burlingame, Calif.). When binding of both mAbs and Ig fusion proteins were measured in the same experiment, FITC-conjugated anti-mouse and anti-human second step reagents were mixed together before use. Fluorescence on a total of 10,000 cells was then analyzed by FACS^R.
Binding was detected by FACS^R following addition of FITC-conjugated goat anti-human Ig second step reagents. A total of 10,000 stained cells were analyzed by FACS^R.

[2] = target: B1; experiment: enzyme immunoassay on fixed B7-1+ CHO cells
[3] = target: B1; experiment: B7-1+ CHO cell enzyme immunoassay; binding activity relative to CTLA4Ig, from the concentrations giving the same A450
[4] = target: T1, CD5Ig; experiment: indirect immunofluorescence, FACS, transfected COS cells, FITC anti-mouse and anti-human Ig second step
Method: Immunostaining and FACS^R Analysis. Prior to staining, COS or CHO cells were removed from their culture vessels by incubation in PBS containing 10 mM EDTA. Cells were first incubated with mAbs or Ig fusion proteins at 10 micro grams/ml in DMEM containing 10% FBS for 1–2 hr at 4 degrees C. Cells were then washed, and incubated for an additional 0.5–2 hrs at 4 degrees C. with FITC-conjugated goat anti-mouse immunoglobulin or with FITC-conjugated goat anti-human IgCγ serum (both from Tago, Burlingame, Calif.). When binding of both mAbs and Ig fusion proteins were measured in the same experiment, FITC-conjugated anti-mouse and anti-human second step reagents were mixed together before use. Fluorescence on a total of 10,000 cells was then analyzed by FACS^R.
Cells were then washed and binding was detected by a mixture of FITC-conjugated goat anti-mouse Ig and FITC-conjugated goat anti-human Ig second step reagents. Transfected cells were tested for expression of the appropriate cell surface markers by indirect immunostaining and fluorescence was measured using FACS^R analysis as described above.

T1 sequence (P06127 other isoform, or with tags, fused parts or gaps limits assumed): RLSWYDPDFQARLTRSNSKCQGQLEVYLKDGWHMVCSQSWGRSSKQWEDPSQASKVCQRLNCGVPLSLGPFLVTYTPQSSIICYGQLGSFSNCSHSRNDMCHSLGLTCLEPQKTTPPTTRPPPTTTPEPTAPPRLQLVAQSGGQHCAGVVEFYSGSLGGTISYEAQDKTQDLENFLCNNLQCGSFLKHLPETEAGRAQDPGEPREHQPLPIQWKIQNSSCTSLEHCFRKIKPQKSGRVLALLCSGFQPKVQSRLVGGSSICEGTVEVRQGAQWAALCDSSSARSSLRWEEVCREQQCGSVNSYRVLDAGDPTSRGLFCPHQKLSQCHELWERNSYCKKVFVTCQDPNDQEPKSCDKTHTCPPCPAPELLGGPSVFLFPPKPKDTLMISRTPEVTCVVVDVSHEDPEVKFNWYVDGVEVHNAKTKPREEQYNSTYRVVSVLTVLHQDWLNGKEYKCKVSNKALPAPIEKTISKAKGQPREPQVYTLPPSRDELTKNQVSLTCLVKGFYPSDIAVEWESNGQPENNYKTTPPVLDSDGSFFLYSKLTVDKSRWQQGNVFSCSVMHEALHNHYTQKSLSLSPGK

Binder | % B7 binding activity [3] [%] | further results
B1 | – | binding result [1]: no binding (tested: 10 µg/ml (from the text))
CTLA4/CD28Ig hybrid fusion protein HS4 (Fc fusion, not shown: a dimerising Fc or GST, mature numbering, not counted on the entries) NKILVKQSPMLVAYDNAYNLSCKYSYNLFSREFRASLHKGLDSAVEVCVVYGNYSQQLQVYSKTGFNCDGKLGNESVTFYLQNLYVNQTDIYFCKIELMYPPPYYLGIGNGTQIYVIDPEPCPDSD | 16 | fold less binding than wild type CTLA4Ig [2]: ~5 fold; increase in binding relative to CD28Ig [2]: ~2.5 orders of magnitude
CTLA4/CD28Ig hybrid fusion protein HS4-A (Fc fusion, not shown: a dimerising Fc or GST, mature numbering, not counted on the entries) NKILVKQSPMLVAYDNAYNLSCKYSYNLFSREFRASLHKGLDSAVEVCVVYGNYSQQLQVYSKTGFNCDGKLGNESVTFYLQNLYVNQTDIYFCKIELMYPPPYYLGIGNGTQIHVKGKHLCPS | 2 | % of wild type binding [2]: ~2%
CTLA4/CD28Ig hybrid fusion protein HS6 (Fc fusion, not shown: a dimerising Fc or GST, mature numbering, not counted on the entries) MHVAQPAVVLASSRGIASFVCEYSYNLFSREVRVTVLRQADSQVTEVCAATYMMGNELTFLDDSICTGTSSGNQVNLTIQGLRAMDTGLYICKVELMYPPPYYLGIGNGTQIYVIDPEPCPDSD | 20 | –
CTLA4/CD28Ig hybrid fusion protein HS3 (Fc fusion, not shown: a dimerising Fc or GST, mature numbering, not counted on the entries) MHVAQPAVVLASSRGIASFVCEYASPGKATEVRVTVLRQADSQVTEVCAATYMMGNELTFLDDSICTGTSSGNQVNLTIQGLRAMDTGLYICKVEVMYPPPYLDNEKSNGTIIHVKGKHLCPS | < 0.1 | –
CTLA4/CD28Ig hybrid fusion protein HS1 (Fc fusion, not shown: a dimerising Fc or GST, mature numbering, not counted on the entries) NKILVKQSPMLVAYDNAYNLSCKYASPGKATEVRVTVLRQADSQVTEVCAATYMMGNELTFLDDSICTGTSSGNQVNLTIQGLRAMDTGLYICKVEVMYPPPYLDNEKSNGTIIHVKGKHLCPS | < 0.1 | –
CTLA4/CD28Ig hybrid fusion protein HS2 (Fc fusion, not shown: a dimerising Fc or GST, mature numbering, not counted on the entries) MHVAQPAVVLASSRGIASFVCKYSYNLFSREFRASLHKGLDSAVEVCVVYGNYSQQLQVYSKTGFNCDGKLGNESVTFYLQNLYVNQTDIYFCKIELMYPPPYYLGIGNGTQIYVIDPEPCPDSD | 27 | –
CD7 expressed on transfected COS cells (receptor, UniProt P09564 26-240, looked up, whole, on cells; Control transfectant; also called CD7-transfected COS cells) AQEVQQSPHCTTVPVGASVNITCSTSGGLRGIYLRQLGPQPQDIIYYEDGVVPTTDRRFRGRIDFSGSQDNLTITMHRLQLSDTGTYTCQAITEVNVYGSGTLVLVTEEQSQGWHRCSDAPPRASALPAPPTGSALPDPQTASALPDPPAASALPAALAVISFLLGLGLGVACVLARTQIKKLCSWRDKNSAACVVYEDMSHSRCNTLSSPNQYQ | – | binding result [4]: no binding (tested: 10 µg/ml (from the text))
